Measurements reported in patent publication US20190091326A1.

Columns and labels:
[1] = biological target: JRFL-E168K V1/V2 scaffold, engineered, gD-tagged, produced in normal 293 HEK cells (herpes simplex virus 1; HIV-1 isolate JRFL); assay: ELISA; table row JRFL-E168K V1/V2.eng1*, column 293
[2] = biological target: ZM233 V1/V2 scaffold, engineered, gD-tagged, produced in GnTI- 293 HEK cells (herpes simplex virus 1; HIV-1 isolate ZM233); assay: ELISA; table row ZM233 V1/V2.eng1*, GnTI-
[3] = biological target: UCSC1207 V1/V2/V3 scaffold (glycosylation site moved from N334 to N332) grown in GnTI- cells (HIV-1 isolate A244 (clade CRF01-AE)); assay: ELISA, mAb titrated on scaffold, absorbance 492 nm; curve 512 (1207 GNTI-)
[4] = biological target: 108060-I169K V1/V2 scaffold, gD-tagged, produced in normal 293 HEK cells (herpes simplex virus 1; HIV-1 isolate 108060); assay: ELISA; table row 108060 V1/V2 I169K, column 293
A244 V1/V2.eng1 (GnTI-) = assay: ELISA; table row A244 V1/V2.eng1*, GnTI-
ZM197 V1/V2 wt (293) = assay: ELISA; table row ZM197 V1/V2 wt, column 293
[5] = biological target: 108060 V1/V2 scaffold, wildtype, gD-tagged, produced in GnTI- 293 HEK cells (herpes simplex virus 1; HIV-1 isolate 108060); assay: ELISA; table row 108060 V1/V2 wt, GnTI-
[6] = biological target: ZM233 V1/V2 scaffold, engineered, gD-tagged, produced in normal 293 HEK cells (herpes simplex virus 1; HIV-1 isolate ZM233); assay: capture ELISA on 34.1 anti-gD; scaffold made in 293F cells
ZM233 mutant, Mock = assay: ELISA of mock- or Endo H-digested scaffold, PG9 titrated, absorbance 490 nm
MN mutant, Mock = assay: as above
ZM109 V1/V2 wt (293) = assay: ELISA; table row ZM109 V1/V2 wt, column 293
[7] = biological target: 108060 I169K/E172V/T161M/N156I/S164P/L165G V1/V2 scaffold, gD-tagged, produced in GnTI- 293 HEK cells (herpes simplex virus 1; HIV-1 isolate 108060); assay: ELISA; table row 108060 V1/V2.eng2**, GnTI-
[8] = biological target: ZM233 V1/V2 scaffold, wildtype, gD-tagged, produced in GnTI- 293 HEK cells (herpes simplex virus 1; HIV-1 isolate ZM233); assay: ELISA; table row ZM233 V1/V2 wt, GnTI-
[9] = biological target: A244 V1/V2 scaffold, wildtype, gD-tagged, produced in GnTI- 293 HEK cells (herpes simplex virus 1; HIV-1 isolate A244) (UniProt Q69091); assay: ELISA; table row A244 V1/V2 wt, GnTI-
[10] = biological target: 108060 I169K/E172V V1/V2 scaffold, gD-tagged, produced in normal 293 HEK cells (herpes simplex virus 1; HIV-1 isolate 108060); assay: ELISA; table row 108060 V1/V2 I169K/E172V, column 293
ZM197 V1/V2 wt (GnTI-) = assay: ELISA; table row ZM197 V1/V2 wt, GnTI-
CAP.45 V1/V2 wt (293) = assay: ELISA; table row CAP.45 V1/V2 wt, column 293
[11] = biological target: MN V1/V2 scaffold, engineered, gD-tagged, produced in GnTI- 293 HEK cells (herpes simplex virus 1; HIV-1 isolate MN); assay: ELISA; table row MN V1/V2.eng1*, GnTI-
[12] = biological target: 108060 I169K/E172V/T161M/N156I V1/V2 scaffold, gD-tagged, produced in GnTI- 293 HEK cells (herpes simplex virus 1; HIV-1 isolate 108060); assay: ELISA; table row 108060 I169K/E172V/T161M/N156I, GnTI-
[13] = biological target: A244 V1/V2 scaffold, engineered, Strep-tag/6x Histidine-tag, produced in normal 293 cells (HIV-1 isolate A244); assay: SPR (Biacore 3000), PG9 captured on anti-human Fc, scaffold flowed, 1:1 Langmuir fit
[14] = biological target: A244 V1/V2 scaffold, wildtype (unmutated), Strep-tag/6x Histidine-tag, expressed in GnTI- cells (HIV-1 isolate A244); assay: as above
[15] = biological target: ZM233 V1/V2 scaffold, engineered, Strep-tag/6x Histidine-tag, expressed in normal 293 cells (HIV-1 isolate ZM233); assay: as above
Bal.01 V1/V2 wt (293) = assay: ELISA; table row Bal.01 V1/V2 wt, column 293
[16] = biological target: ZM109 V1/V2 scaffold, wildtype, gD-tagged, produced in GnTI- 293 cells (herpes simplex virus 1; HIV-1 isolate ZM109); assay: ELISA; table row ZM109 V1/V2 wt, GnTI-
[17] = biological target: ZM233 V1/V2 scaffold, wildtype, gD-tagged, produced in normal 293 HEK cells (herpes simplex virus 1; HIV-1 isolate ZM233); assay: capture ELISA on 34.1 anti-gD; scaffold made in normal 293 cells
[18] = biological target: A244 V1/V2 scaffold, engineered, gD-tagged, produced in normal 293 HEK cells (herpes simplex virus 1; HIV-1 isolate A244) (UniProt Q69091); assay: ELISA; table row A244 V1/V2.eng1*, column 293

PG9 monoclonal antibody
EC50 [1]: 0.0473 µg/mL | EC50 [2]: 8.5 ng/mL | EC50 [3]: 0.02 µg/mL | EC50 [4]: > 10 µg/mL | EC50 (A244 V1/V2.eng1 (GnTI-)): 4.06 ng/mL | EC50 (ZM197 V1/V2 wt (293)): 2.74 µg/mL | EC50 [5]: > 10 µg/mL | EC50 [6]: 2 ng/mL | EC50 (read off the curve) (ZM233 mutant, Mock): 30 ng/mL | EC50 (read off the curve) (MN mutant, Mock): 100 ng/mL | EC50 (ZM109 V1/V2 wt (293)): 0.517 µg/mL | EC50 [7]: 8.35 ng/mL | EC50 [8]: 9.51 ng/mL | EC50 [9]: 0.741 ng/mL | EC50 [10]: > 10 µg/mL | EC50 (ZM197 V1/V2 wt (GnTI-)): 0.0303 µg/mL | EC50 (CAP.45 V1/V2 wt (293)): 0.312 µg/mL | EC50 [11]: 7.96 ng/mL | EC50 [12]: 0.0281 µg/mL | kon [13]: 40000 M⁻¹ s⁻¹ | kon [14]: 53000 M⁻¹ s⁻¹ | koff [15]: 0.0023 s⁻¹ | kon [15]: 40000 M⁻¹ s⁻¹ | EC50 (Bal.01 V1/V2 wt (293)): 0.853 µg/mL | EC50 [16]: 0.0143 µg/mL | EC50 [17]: 0.0771 µg/mL | EC50 [18]: 0.099 µg/mL
